Results on four molecules are retold here after PMC6114900, “Molecular basis for CesT recognition of type III secretion effectors in enteropathogenic Escherichia coli” (PLoS Pathogens, 2018).

Experiment [1] concerns the target T1, CesT (no tag, co-expressed and co-purified with His6-Tir constructs) (enteropathogenic Escherichia coli (EPEC), UniProt P21244 1-156).
T1 construct: also called full-length CesT
Briefly: SEC. Conditions: both partners purified.

In experiment [2] the target is T2, CesT^138 (no tag, co-expressed and co-purified with His6-Tir peptides) (enteropathogenic Escherichia coli (EPEC), UniProt P21244 2-138).
T2 construct: also called CesT^2-138
The experiment can be described thus: pull-down. The settings on record: partners not purified.

T1 sequence (P21244 whole entry): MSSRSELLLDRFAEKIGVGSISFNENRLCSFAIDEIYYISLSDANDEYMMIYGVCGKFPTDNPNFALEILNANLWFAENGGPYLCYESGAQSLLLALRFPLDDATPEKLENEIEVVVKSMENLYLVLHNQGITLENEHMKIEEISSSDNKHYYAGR
T2 sequence (P21244 2-138): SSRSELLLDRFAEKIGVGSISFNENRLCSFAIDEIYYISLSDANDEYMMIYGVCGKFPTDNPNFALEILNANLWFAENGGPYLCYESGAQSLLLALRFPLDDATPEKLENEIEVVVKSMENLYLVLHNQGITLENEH

On to GGTGHLISSTGALGSRSLFSPLRNSMADSVDSRDIPGLPTNPSRLAAAT (domain or fragment, not shown: His6, N-terminal, kept) [His6-Tir^32-80], for which the binding result in experiment [1] and in experiment [2] was “binds” in each case.

B1: His6-Tir^23-80 (domain or fragment)
chain: PSQTDGAARGGTGHLISSTGALGSRSLFSPLRNSMADSVDSRDIPGLPTNPSRLAAAT
notes: not shown: His6, N-terminal, kept
For B1, in experiment [1], the binding result is recorded as “binds”.

B2: His6-Tir^490-550 (domain or fragment)
chain: SGSGPVTGRLIGTPGQGIQSTYALLANSGGLRLGMGGLTSGGESAVSSVNAAPTPGPVRFV
notes: also called C-terminal Tir peptide; not shown: His6, N-terminal, kept
B2: the binding result in experiment [1] is recorded as “binds”.

Turning to GHLISSTGALGSRSLFSPLRNSMADSVDSRDIPGLPTNPSRLA (domain or fragment, not shown: His6, N-terminal, kept) [His6-Tir^35-77], the binding result in experiment [1] was “binds”.
